A word on the pEC50: it is −log10 of the EC50, conventionally taken in molar units. A low value points to a high EC50.

Test [1] has as its target FMAL-labeled RLC-exchanged full-length cardiac myosin (porcine (ventricles) | human) (UniProt P79293). Nature of the test: FRET or BRET.
For test [2], the target named is FMAL-labeled F-actin (rabbit) (UniProt P68135). Nature of the test: FRET or BRET.
For test [3] the target is unchanged. In words: co-sedimentation.
Test [4] concerns the target FMAL-labeled F-actin (rabbit skeletal muscle) (rabbit) (UniProt P68135). In words: FRET or BRET. A general note: Bioluminescence resonance energy transfer reports proximity on the nanometre scale.

pEC50: −log10 of the molar value.

For the substance “C0-C2^(cys249, E334K), PKA-phosphorylated (domain or fragment)”, the FLT-FRET at 2.5 μM relative to WT (relative to WT) in test [1] stood at 1.7.
As for “C0-C2^(cys249, L349R) (domain or fragment)”, the FLT-FRET at 2.5 μM relative to WT (relative to WT) in test [2] came out at 1.1.
On the same count and under the same terms, with “C0-C2^(cys249, L349R), PKA-phosphorylated (domain or fragment)” the figure was 1.31.
With “C0-C2^(cys330, E334K), PKA-phosphorylated (domain or fragment)”, the FLT-FRET at 2.5 μM relative to WT (relative to WT) in test [1] is 2.
Same read-out and setting: with “C0-C2^(cys330, L349R) (domain or fragment)” the figure was 1.6.
“C0-C2^(cys330, R282W) (domain or fragment)” showed an FLT-FRET at 2.5 μM relative to WT (relative to WT) in test [2] of 1.1.
Turning to C0-C2^cys85 (domain or fragment), the negative-log EC50 (pEC50) is 5.85 in test [2] and 5.05 in test [1].
In test [2], “C0-C2^cys85, PKA-phosphorylated (domain or fragment)” displayed a fold change of EC50 upon phosphorylation of 2.9 fold and a reduction of FRET at 2.5 μM upon phosphorylation of 52%. Moreover, the fold increase of EC50 upon phosphorylation in test [3] was determined as 1.1 fold.
Regarding C0-C2^cys249 (domain or fragment), the pEC50 in test [2] was 5.52; in test [1], 5.47.
In test [2], “C0-C2^cys249, PKA-phosphorylated (domain or fragment)” returned a fold change of EC50 upon phosphorylation of 1.7 fold and a reduction of FRET at 2.5 μM upon phosphorylation of 52%. For the same substance, in test [3], the fold increase of EC50 upon phosphorylation came out at 1.6 fold.
As to C0-C2^cys330 (domain or fragment), the figures for the pEC50 in test [2] and in test [1] were 5.20 and 5.16, respectively.
In test [4], “TMR-C0-C2^(cys249, L352P) (domain or fragment)” showed a negative-log EC50 (pEC50) of 5.88.
Same read-out and setting: with TMR-C0-C2^cys249 (domain or fragment) the figure was 5.67.

The values above are taken from article PMC10872421.
